Experimental data published in IntAct's records for PubMed 22677173.

B1: Spermatogenesis-defective protein 39 homolog (Homo sapiens), Q9H9C1 (parent)
chain: MNRTKGDEEEYWNSSKFKAFTFDDEDDELSQLKESKRAVNSLRDFVDDDDDDDLERVSWSGEPVGSISWSIRETAGNSGSTHEGREQLKSRNSFSSYAQLPKPTSTYSLSSFFRGRTRPGSFQSLSDALSDTPAKSYAPELGRPKGEYRDYSNDWSPSDTVRRLRKGKVCSLERFRSLQDKLQLLEEAVSMHDGNVITAVLIFLKRTLSKEILFRELEVRQVALRHLIHFLKEIGDQKLLLDLFRFLDRTEELALSHYREHLNIQDPDKRKEFLKTCVGLPFSAEDSAHIQDHYTLLERQIIIEANDRHLESAGQTEIFRKHPRKASILNMPLVTTLFYSCFYHYTEAEGTFSSPVNLKKTFKIPDKQYVLTALAARAKLRAWNDVDALFTTKNWLGYTKKRAPIGFHRVVEILHKNNAPVQILQEYVNLVEDVDTKLNLATKFKCHDVVIDTYRDLKDRQQLLAYRSKVDKGSAEEEKIDALLSSSQIRWKN
partner: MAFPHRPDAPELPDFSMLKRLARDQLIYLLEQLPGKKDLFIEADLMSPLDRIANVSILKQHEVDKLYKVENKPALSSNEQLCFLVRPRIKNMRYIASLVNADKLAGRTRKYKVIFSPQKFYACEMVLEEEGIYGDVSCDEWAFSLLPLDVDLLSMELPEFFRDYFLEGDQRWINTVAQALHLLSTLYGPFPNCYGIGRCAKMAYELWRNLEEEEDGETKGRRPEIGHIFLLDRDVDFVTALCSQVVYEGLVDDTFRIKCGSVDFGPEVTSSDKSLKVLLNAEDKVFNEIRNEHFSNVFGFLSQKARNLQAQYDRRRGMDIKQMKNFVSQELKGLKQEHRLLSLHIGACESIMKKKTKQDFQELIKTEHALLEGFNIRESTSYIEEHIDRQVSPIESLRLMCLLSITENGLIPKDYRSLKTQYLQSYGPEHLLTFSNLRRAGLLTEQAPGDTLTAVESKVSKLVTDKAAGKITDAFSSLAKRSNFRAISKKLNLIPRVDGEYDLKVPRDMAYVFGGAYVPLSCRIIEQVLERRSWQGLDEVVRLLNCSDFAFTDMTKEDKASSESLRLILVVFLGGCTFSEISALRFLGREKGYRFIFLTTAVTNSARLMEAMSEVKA

Variants of: B1
Details: with vp33b_human VPS33B

**Q.** Y11F was tested. Which “effect of a mutation on the interaction” value did it give?
**A.** increasing interaction
